*: point of attachment. βGlcNAc = CC(=O)N[C@@H]1[C@@H](O)[C@H](O)[C@@H](CO)O[C@H]1*
Assays:
[1] = target: T1, human O-GlcNAcase (hOGA) Y69Q (human) (UniProt O60502)
T1 sequence: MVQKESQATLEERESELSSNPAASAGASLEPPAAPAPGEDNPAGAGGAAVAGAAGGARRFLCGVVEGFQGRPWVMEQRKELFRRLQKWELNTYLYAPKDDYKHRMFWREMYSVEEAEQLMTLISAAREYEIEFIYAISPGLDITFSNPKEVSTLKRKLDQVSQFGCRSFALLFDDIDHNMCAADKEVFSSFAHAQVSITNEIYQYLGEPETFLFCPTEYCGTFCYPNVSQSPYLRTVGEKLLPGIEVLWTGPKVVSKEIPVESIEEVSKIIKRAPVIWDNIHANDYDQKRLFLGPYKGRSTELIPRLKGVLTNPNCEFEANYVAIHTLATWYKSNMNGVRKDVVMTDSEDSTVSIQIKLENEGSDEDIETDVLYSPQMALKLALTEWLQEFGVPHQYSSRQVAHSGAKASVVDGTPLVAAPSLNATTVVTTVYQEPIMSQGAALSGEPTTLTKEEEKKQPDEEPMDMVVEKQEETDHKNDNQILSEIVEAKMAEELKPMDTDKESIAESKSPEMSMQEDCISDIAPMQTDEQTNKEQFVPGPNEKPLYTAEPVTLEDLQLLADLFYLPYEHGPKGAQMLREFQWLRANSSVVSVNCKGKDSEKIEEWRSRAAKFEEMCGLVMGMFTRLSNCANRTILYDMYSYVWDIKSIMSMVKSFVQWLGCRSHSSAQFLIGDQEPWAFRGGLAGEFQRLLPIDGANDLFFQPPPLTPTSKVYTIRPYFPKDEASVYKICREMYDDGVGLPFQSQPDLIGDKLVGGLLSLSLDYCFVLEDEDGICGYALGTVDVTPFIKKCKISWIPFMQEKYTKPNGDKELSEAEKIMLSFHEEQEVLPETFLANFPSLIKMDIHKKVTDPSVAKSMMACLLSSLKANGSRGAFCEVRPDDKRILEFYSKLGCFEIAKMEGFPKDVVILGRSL

[2] = target: T2, human O-GlcNAcase (hOGA) Y69S (human) (UniProt O60502)
T2 sequence: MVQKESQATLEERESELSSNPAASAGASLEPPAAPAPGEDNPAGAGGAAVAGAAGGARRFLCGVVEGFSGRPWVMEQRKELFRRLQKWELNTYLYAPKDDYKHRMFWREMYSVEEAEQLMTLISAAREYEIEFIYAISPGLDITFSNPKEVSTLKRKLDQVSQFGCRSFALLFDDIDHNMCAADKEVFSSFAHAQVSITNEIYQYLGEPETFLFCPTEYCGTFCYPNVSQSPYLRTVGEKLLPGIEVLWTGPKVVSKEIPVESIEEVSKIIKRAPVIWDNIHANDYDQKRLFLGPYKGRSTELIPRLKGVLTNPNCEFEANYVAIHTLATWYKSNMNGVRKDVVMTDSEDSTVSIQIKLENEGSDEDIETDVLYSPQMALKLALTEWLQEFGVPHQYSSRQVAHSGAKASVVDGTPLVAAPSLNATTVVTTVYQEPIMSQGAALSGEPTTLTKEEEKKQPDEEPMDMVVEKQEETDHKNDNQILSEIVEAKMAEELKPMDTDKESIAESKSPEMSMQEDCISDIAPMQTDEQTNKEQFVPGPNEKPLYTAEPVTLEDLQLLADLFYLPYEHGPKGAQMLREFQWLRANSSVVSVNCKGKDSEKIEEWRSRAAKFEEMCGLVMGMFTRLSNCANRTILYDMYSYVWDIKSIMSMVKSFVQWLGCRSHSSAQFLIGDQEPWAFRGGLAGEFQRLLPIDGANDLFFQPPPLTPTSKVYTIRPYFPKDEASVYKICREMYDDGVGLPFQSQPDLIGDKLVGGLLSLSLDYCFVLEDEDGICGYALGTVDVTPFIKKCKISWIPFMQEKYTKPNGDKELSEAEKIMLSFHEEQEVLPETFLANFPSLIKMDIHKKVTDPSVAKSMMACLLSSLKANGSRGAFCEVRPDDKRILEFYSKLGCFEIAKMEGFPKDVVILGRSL

[3] = target: T3, human O-GlcNAcase (hOGA) Y69K (human) (UniProt O60502)
T3 sequence: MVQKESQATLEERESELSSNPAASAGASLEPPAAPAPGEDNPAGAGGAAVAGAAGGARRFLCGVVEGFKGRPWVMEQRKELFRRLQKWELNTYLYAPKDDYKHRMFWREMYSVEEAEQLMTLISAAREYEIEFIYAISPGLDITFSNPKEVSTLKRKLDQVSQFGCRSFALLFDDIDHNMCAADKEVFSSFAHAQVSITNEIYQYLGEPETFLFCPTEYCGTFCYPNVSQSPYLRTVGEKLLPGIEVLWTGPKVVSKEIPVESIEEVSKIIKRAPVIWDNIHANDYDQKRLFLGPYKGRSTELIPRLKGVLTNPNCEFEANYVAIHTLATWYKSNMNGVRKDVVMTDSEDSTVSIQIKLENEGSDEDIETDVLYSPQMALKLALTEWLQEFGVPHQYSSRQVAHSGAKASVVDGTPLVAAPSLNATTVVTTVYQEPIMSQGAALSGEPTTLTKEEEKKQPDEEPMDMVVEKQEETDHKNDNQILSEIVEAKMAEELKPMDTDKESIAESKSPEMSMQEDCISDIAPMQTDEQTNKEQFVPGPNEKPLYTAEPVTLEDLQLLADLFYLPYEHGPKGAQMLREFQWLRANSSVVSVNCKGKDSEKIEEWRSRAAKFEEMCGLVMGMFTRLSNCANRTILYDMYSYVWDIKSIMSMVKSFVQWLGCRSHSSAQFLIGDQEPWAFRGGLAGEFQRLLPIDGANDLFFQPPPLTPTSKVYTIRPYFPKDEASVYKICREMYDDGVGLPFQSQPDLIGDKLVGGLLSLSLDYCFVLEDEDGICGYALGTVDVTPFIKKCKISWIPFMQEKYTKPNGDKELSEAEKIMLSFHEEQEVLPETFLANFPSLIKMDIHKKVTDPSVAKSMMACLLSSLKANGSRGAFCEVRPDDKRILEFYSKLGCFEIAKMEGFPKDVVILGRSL

B1: TAB1 peptide PVSVPYS(O-GlcNAc)SAQSTS (peptide)
peptide: Ac-PVSVPYS(βGlcNAc)SAQSTS-NH2
SMILES: CC(=O)N[C@H]1[C@H](OC[C@H](NC(=O)[C@H](Cc2ccc(O)cc2)NC(=O)[C@@H]2CCCN2C(=O)[C@@H](NC(=O)[C@H](CO)NC(=O)[C@@H](NC(=O)[C@@H]2CCCN2C(C)=O)C(C)C)C(C)C)C(=O)N[C@@H](CO)C(=O)N[C@@H](C)C(=O)N[C@@H](CCC(N)=O)C(=O)N[C@@H](CO)C(=O)N[C@H](C(=O)N[C@@H](CO)C(N)=O)[C@@H](C)O)O[C@H](CO)[C@@H](O)[C@@H]1O
[1]
  KM of the glycopeptide substrate (substrate competition assay with 4MU-GlcNAc as reporter substrate): 3.6 mM
[2]
  KM of the glycopeptide substrate (substrate competition assay with 4MU-GlcNAc as reporter substrate): > 4 mM
[3]
  KM of the glycopeptide substrate (substrate competition assay with 4MU-GlcNAc as reporter substrate): > 4 mM
